According to article PMC7018516, “Structure of the AAA protein Msp1 reveals mechanism of mislocalized membrane protein extraction” (eLife, 2020):

How the values were obtained:
[1] = target: T1, Δ30-Msp1 (Thermochaetoides thermophila, UniProt G0S654); experiment: cryo-EM structure of complex; conditions: 5 mM ADP•BeFx, 5 mM MgCl2, pH 7.5; ADP without BeFx in subunit M5; nucleotide-binding pocket; substrate peptide in pore
T1 construct: gene CTHT_0034230; cytosolic domain lacking the 30-residue N-terminal membrane anchor; GST tag removed by thrombin; expressed in E. coli BL21(DE3); homohexamer with trapped endogenous E. coli peptide in the pore
T1 sequence (G0S654 entry or part of it, stated change not applied): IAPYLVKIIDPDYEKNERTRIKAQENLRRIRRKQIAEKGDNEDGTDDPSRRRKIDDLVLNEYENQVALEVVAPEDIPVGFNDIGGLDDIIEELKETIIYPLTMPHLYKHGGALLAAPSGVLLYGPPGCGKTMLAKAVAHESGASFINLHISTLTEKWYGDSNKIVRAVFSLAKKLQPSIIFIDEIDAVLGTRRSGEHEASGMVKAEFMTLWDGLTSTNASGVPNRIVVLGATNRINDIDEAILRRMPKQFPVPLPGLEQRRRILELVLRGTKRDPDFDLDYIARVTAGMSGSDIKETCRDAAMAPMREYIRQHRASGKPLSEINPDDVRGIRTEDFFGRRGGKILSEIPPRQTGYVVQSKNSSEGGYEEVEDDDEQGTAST

[2] = target: T2, Δ30-Msp1 (Thermochaetoides thermophila, UniProt G0S654, E214Q); experiment: cryo-EM structure of complex; conditions: 2 mM ATP, 2 mM MgCl2, pH 7.5; subunits M1-M5; nucleotide-binding pocket; Walker B mutant, hydrolysis inactive
T2 construct: gene CTHT_0034230; cytosolic domain lacking the 30-residue N-terminal membrane anchor; GST tag removed by thrombin; expressed in E. coli BL21(DE3); homohexamer with trapped endogenous E. coli peptide in the pore
T2 sequence (G0S654 entry or part of it E214Q): as the sequence (G0S654 entry or part of it, stated change not applied) above, with E184Q counted along it

[3] = target: Δ30-Msp1 (cytosolic domain of Chaetomium thermophilum Msp1 lacking its 30 amino acid N-terminal membrane anchor) (Chaetomium thermophilum); experiment: SEC; gel filtration of the purified protein in Msp1 lysis buffer (25 mM HEPES pH 7.5, 300 mM NaCl, 1 mM DTT, 2 mM MgCl2); self-association
[4] = target: Δ30-Msp1 (cytosolic domain of Chaetomium thermophilum Msp1 lacking its 30 amino acid N-terminal membrane anchor) (Chaetomium thermophilum); experiment: cryo-EM structure; Δ30-Msp1 at 50–100 μM with 5 mM MgCl2 and 5 mM ADP•BeFx, 25 mM HEPES pH 7.5, 300 mM NaCl, 1 mM DTT, 2.5% glycerol; subunit with subunit; open and closed conformations
[5] = target: Δ30-Msp1^E214Q (Walker B mutant of the cytosolic domain of Chaetomium thermophilum Msp1) (Chaetomium thermophilum); experiment: cryo-EM structure; Δ30-Msp1^E214Q at 50–100 μM with 2 mM ATP and 2 mM MgCl2, 25 mM HEPES pH 7.5, 300 mM NaCl, 1 mM DTT, 2.5% glycerol; subunit with subunit; hexamer and larger oligomer classes
[6] = target: Δ30-Msp1^E214Q (Walker B mutant of the cytosolic domain of Chaetomium thermophilum Msp1) (Chaetomium thermophilum); experiment: SEC; gel filtration of the purified protein in Msp1 lysis buffer (25 mM HEPES pH 7.5, 300 mM NaCl, 1 mM DTT, 2 mM MgCl2); self-association
[7] = target: Δ30-Msp1^E214Q (Walker B mutant of the cytosolic domain of Chaetomium thermophilum Msp1) (Chaetomium thermophilum); experiment: cryo-EM structure; Δ30-Msp1^E214Q at 50–100 μM with 2 mM ATP and 2 mM MgCl2, 25 mM HEPES pH 7.5, 300 mM NaCl, 1 mM DTT, 2.5% glycerol; subunit with subunit; hexamer and larger oligomer classes; remark: listed apart in the source

Nc1ncnc2c1ncn2[C@@H]1O[C@H](COP(=O)(O)OP(=O)(O)O)[C@@H](O)[C@H]1O [ADP]
cryo-EM structure of complex [1]: M1 -M4 were bound to ADP•BeFx (mimicking the ATP state), M5 was bound to ADP

Nc1ncnc2c1ncn2[C@@H]1O[C@H](COP(=O)(O)OP(=O)(O)OP(=O)(O)O)[C@@H](O)[C@H]1O [ATP]
cryo-EM structure of complex [2]: In Δ30-Msp1^E214Q, M1-M5 display clear density for ATP

Δ30-Msp1 (cytosolic domain of Chaetomium thermophilum Msp1 lacking its 30 amino acid N-terminal membrane anchor) (enzyme)
stoichiometry N [3]: 6 | stoichiometry N [4]: 6

Δ30-Msp1^E214Q (Walker B mutant of the cytosolic domain of Chaetomium thermophilum Msp1) (enzyme)
stoichiometry N [5]: 6 | stoichiometry N [6]: > 6 | stoichiometry N [7]: 7
